Source: patent US20020142009A1

T1: rhC5a, P01031
T1 chain: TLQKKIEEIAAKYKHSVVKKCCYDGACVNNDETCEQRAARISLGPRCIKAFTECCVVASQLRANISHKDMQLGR


Tests used:
[1] = target: rhC5a (human (printed as rhC5a)) (UniProt P01031); assay: cell-based or functional assay
[2] = target: T1, rhC5a, P01031

Molecule | Activity (U/mg*10^-3), PMN adherence assay [2] [U/mg·10^-3] | other results
SCPA6, streptococcal C5a peptidase of group A Streptococcus serotype M6 strain UAB200, as made by the bacteria (enzyme) |  | Percent inhibition of C5a induced PMN adherence [1]: 58.8%
SCPA49, streptococcal C5a peptidase of group A Streptococcus serotype M49 strain CS101, as made by the bacteria (from UniProt P58099 2-1181) (enzyme) |  | Percent inhibition of C5a induced PMN adherence [1]: 54.5%
ΔSCPA49 (truncated recombinant SCPA49, Thr63 through His1031) (protein) TKTPQTPDDAEETVADDANDLAPQAPAKTPDTSATSKATIRDLNDPSQVKTLQEKAGKGAGTVVAVIDAGFDKNHEAWRLTDKAKARYQSKEDLEKAKKEHGITYGEWVNDKVAYYHDYSKDGKTAVDQEHGTHVSGILSGNAPSETKEPYRLEGAMPEAQLLLMRVEIVNGLADYARNYAQAIRDAVNLGAKVINMSFGNAALAYANLPDETKKPFVYAKSKGVRIVTTAGNDSSFGGKTRLPLADHPDYGVVGTPAAADSTLTVASYSPDNQLTETAMVKTDDQQDKEMPVLSTNRFEPNKAYDYAYANRGMKEDDFKDVKGKIALIERSDIDFTDKIANAKKAGAVGVLIYDNQDKGFPIELPNVDQMPAAFISRKDGLLLKDNSQKTITFNATPKVLPTASGTKLSRFSSWGLTADGNIKPDIAAPGQDILSSAANNKYAKLSGTSMSAPLVAVIMGLLQKQYETQYPDMTQSERLDLAKKVLMSSATALYDEDEKAYFSPRQQGAGAVDAKKASEATMYVTDKDNTSSKVHLNNVSDKFEVTVTVHNKSDKPHELYYQATVQTDKVDGKHFALAPKALIETSWQKITIPANSSKQVTIPIDISQFSKDLLAQMKNGYFLEGFVRIKQDPTKEELMSIPYIGFRGDFGNLSALEKPLYDSKDGSSYYHEEISDAKDQLDGDGLQFYALKNDFTALTTESNPWTIINVVKEGVENIEDIESSEITETIFAGTFAKQDDDRHYYIHRHANGKPYAAISPNGDGNRDYVQFHGTFLRNAKNLVAEVLDKEGNVVWTSEVTEQVVKNYNNDLASTLGSTRFEISRWDGKDKDAKVVANGTYTYRVRYTPISSGAKEQHTDFDVIVDNTTPEVATSATFSTEDRRLTLASKPQTSQPVYRERIAYTYMDEDLPTTEYISPNEDGTFTLPEEAETMEGATVPLKMSDFTYVVEDMAGNITYTPVTKLLEGH |  | peptidase activity, PMN adherence assay [2]: lacked peptidase activity
recombinant wild-type SCPA49 (Asn32 through His1139) (protein) NTVTEDTPATEQAVETPQPTTVSEEVPSSKETKTPQTPDDAEETVADDANDLAPQAPAKTPDTSATSKATIRDLNDPSQVKTLQEKAGKGAGTVVAVIDAGFDKNHEAWRLTDKAKARYQSKEDLEKAKKEHGITYGEWVNDKVAYYHDYSKDGKTAVDQEHGTHVSGILSGNAPSETKEPYRLEGAMPEAQLLLMRVEIVNGLADYARNYAQAIRDAVNLGAKVINMSFGNAALAYANLPDETKKPFVYAKSKGVRIVTTAGNDSSFGGKTRLPLADHPDYGVVGTPAAADSTLTVASYSPDNQLTETAMVKTDDQQDKEMPVLSTNRFEPNKAYDYAYANRGMKEDDFKDVKGKIALIERSDIDFTDKIANAKKAGAVGVLIYDNQDKGFPIELPNVDQMPAAFISRKDGLLLKDNSQKTITFNATPKVLPTASGTKLSRFSSWGLTADGNIKPDIAAPGQDILSSAANNKYAKLSGTSMSAPLVAVIMGLLQKQYETQYPDMTQSERLDLAKKVLMSSATALYDEDEKAYFSPRQQGAGAVDAKKASEATMYVTDKDNTSSKVHLNNVSDKFEVTVTVHNKSDKPHELYYQATVQTDKVDGKHFALAPKALIETSWQKITIPANSSKQVTIPIDISQFSKDLLAQMKNGYFLEGFVRIKQDPTKEELMSIPYIGFRGDFGNLSALEKPLYDSKDGSSYYHEEISDAKDQLDGDGLQFYALKNDFTALTTESNPWTIINVVKEGVENIEDIESSEITETIFAGTFAKQDDDRHYYIHRHANGKPYAAISPNGDGNRDYVQFHGTFLRNAKNLVAEVLDKEGNVVWTSEVTEQVVKNYNNDLASTLGSTRFEISRWDGKDKDAKVVANGTYTYRVRYTPISSGAKEQHTDFDVIVDNTTPEVATSATFSTEDRRLTLASKPQTSQPVYRERIAYTYMDEDLPTTEYISPNEDGTFTLPEEAETMEGATVPLKMSDFTYVVEDMAGNITYTPVTKLLEGHSNKPEQDGSDQAPDKKPETKPEQDGSDQAPDKKPETKPGQDGSGQTPDKKPETKPEKDSSGQTPGKTPQKGQPSRTLEKRSSKRALATKASTRDQLPTTNDKDTNRLH | 170 | 
SCPA49D130A (protein) NTVTEDTPATEQAVETPQPTTVSEEVPSSKETKTPQTPDDAEETVADDANDLAPQAPAKTPDTSATSKATIRDLNDPSQVKTLQEKAGKGAGTVVAVIAAGFDKNHEAWRLTDKAKARYQSKEDLEKAKKEHGITYGEWVNDKVAYYHDYSKDGKTAVDQEHGTHVSGILSGNAPSETKEPYRLEGAMPEAQLLLMRVEIVNGLADYARNYAQAIRDAVNLGAKVINMSFGNAALAYANLPDETKKPFVYAKSKGVRIVTTAGNDSSFGGKTRLPLADHPDYGVVGTPAAADSTLTVASYSPDNQLTETAMVKTDDQQDKEMPVLSTNRFEPNKAYDYAYANRGMKEDDFKDVKGKIALIERSDIDFTDKIANAKKAGAVGVLIYDNQDKGFPIELPNVDQMPAAFISRKDGLLLKDNSQKTITFNATPKVLPTASGTKLSRFSSWGLTADGNIKPDIAAPGQDILSSAANNKYAKLSGTSMSAPLVAVIMGLLQKQYETQYPDMTQSERLDLAKKVLMSSATALYDEDEKAYFSPRQQGAGAVDAKKASEATMYVTDKDNTSSKVHLNNVSDKFEVTVTVHNKSDKPHELYYQATVQTDKVDGKHFALAPKALIETSWQKITIPANSSKQVTIPIDISQFSKDLLAQMKNGYFLEGFVRIKQDPTKEELMSIPYIGFRGDFGNLSALEKPLYDSKDGSSYYHEEISDAKDQLDGDGLQFYALKNDFTALTTESNPWTIINVVKEGVENIEDIESSEITETIFAGTFAKQDDDRHYYIHRHANGKPYAAISPNGDGNRDYVQFHGTFLRNAKNLVAEVLDKEGNVVWTSEVTEQVVKNYNNDLASTLGSTRFEISRWDGKDKDAKVVANGTYTYRVRYTPISSGAKEQHTDFDVIVDNTTPEVATSATFSTEDRRLTLASKPQTSQPVYRERIAYTYMDEDLPTTEYISPNEDGTFTLPEEAETMEGATVPLKMSDFTYVVEDMAGNITYTPVTKLLEGHSNKPEQDGSDQAPDKKPETKPEQDGSDQAPDKKPETKPGQDGSGQTPDKKPETKPEKDSSGQTPGKTPQKGQPSRTLEKRSSKRALATKASTRDQLPTTNDKDTNRLH | < 20 | 
SCPA49N295A (protein) NTVTEDTPATEQAVETPQPTTVSEEVPSSKETKTPQTPDDAEETVADDANDLAPQAPAKTPDTSATSKATIRDLNDPSQVKTLQEKAGKGAGTVVAVIDAGFDKNHEAWRLTDKAKARYQSKEDLEKAKKEHGITYGEWVNDKVAYYHDYSKDGKTAVDQEHGTHVSGILSGNAPSETKEPYRLEGAMPEAQLLLMRVEIVNGLADYARNYAQAIRDAVNLGAKVINMSFGNAALAYANLPDETKKPFVYAKSKGVRIVTTAGADSSFGGKTRLPLADHPDYGVVGTPAAADSTLTVASYSPDNQLTETAMVKTDDQQDKEMPVLSTNRFEPNKAYDYAYANRGMKEDDFKDVKGKIALIERSDIDFTDKIANAKKAGAVGVLIYDNQDKGFPIELPNVDQMPAAFISRKDGLLLKDNSQKTITFNATPKVLPTASGTKLSRFSSWGLTADGNIKPDIAAPGQDILSSAANNKYAKLSGTSMSAPLVAVIMGLLQKQYETQYPDMTQSERLDLAKKVLMSSATALYDEDEKAYFSPRQQGAGAVDAKKASEATMYVTDKDNTSSKVHLNNVSDKFEVTVTVHNKSDKPHELYYQATVQTDKVDGKHFALAPKALIETSWQKITIPANSSKQVTIPIDISQFSKDLLAQMKNGYFLEGFVRIKQDPTKEELMSIPYIGFRGDFGNLSALEKPLYDSKDGSSYYHEEISDAKDQLDGDGLQFYALKNDFTALTTESNPWTIINVVKEGVENIEDIESSEITETIFAGTFAKQDDDRHYYIHRHANGKPYAAISPNGDGNRDYVQFHGTFLRNAKNLVAEVLDKEGNVVWTSEVTEQVVKNYNNDLASTLGSTRFEISRWDGKDKDAKVVANGTYTYRVRYTPISSGAKEQHTDFDVIVDNTTPEVATSATFSTEDRRLTLASKPQTSQPVYRERIAYTYMDEDLPTTEYISPNEDGTFTLPEEAETMEGATVPLKMSDFTYVVEDMAGNITYTPVTKLLEGHSNKPEQDGSDQAPDKKPETKPEQDGSDQAPDKKPETKPGQDGSGQTPDKKPETKPEKDSSGQTPGKTPQKGQPSRTLEKRSSKRALATKASTRDQLPTTNDKDTNRLH | < 20 | 
SCPA49S512A (protein) NTVTEDTPATEQAVETPQPTTVSEEVPSSKETKTPQTPDDAEETVADDANDLAPQAPAKTPDTSATSKATIRDLNDPSQVKTLQEKAGKGAGTVVAVIDAGFDKNHEAWRLTDKAKARYQSKEDLEKAKKEHGITYGEWVNDKVAYYHDYSKDGKTAVDQEHGTHVSGILSGNAPSETKEPYRLEGAMPEAQLLLMRVEIVNGLADYARNYAQAIRDAVNLGAKVINMSFGNAALAYANLPDETKKPFVYAKSKGVRIVTTAGNDSSFGGKTRLPLADHPDYGVVGTPAAADSTLTVASYSPDNQLTETAMVKTDDQQDKEMPVLSTNRFEPNKAYDYAYANRGMKEDDFKDVKGKIALIERSDIDFTDKIANAKKAGAVGVLIYDNQDKGFPIELPNVDQMPAAFISRKDGLLLKDNSQKTITFNATPKVLPTASGTKLSRFSSWGLTADGNIKPDIAAPGQDILSSAANNKYAKLSGTAMSAPLVAVIMGLLQKQYETQYPDMTQSERLDLAKKVLMSSATALYDEDEKAYFSPRQQGAGAVDAKKASEATMYVTDKDNTSSKVHLNNVSDKFEVTVTVHNKSDKPHELYYQATVQTDKVDGKHFALAPKALIETSWQKITIPANSSKQVTIPIDISQFSKDLLAQMKNGYFLEGFVRIKQDPTKEELMSIPYIGFRGDFGNLSALEKPLYDSKDGSSYYHEEISDAKDQLDGDGLQFYALKNDFTALTTESNPWTIINVVKEGVENIEDIESSEITETIFAGTFAKQDDDRHYYIHRHANGKPYAAISPNGDGNRDYVQFHGTFLRNAKNLVAEVLDKEGNVVWTSEVTEQVVKNYNNDLASTLGSTRFEISRWDGKDKDAKVVANGTYTYRVRYTPISSGAKEQHTDFDVIVDNTTPEVATSATFSTEDRRLTLASKPQTSQPVYRERIAYTYMDEDLPTTEYISPNEDGTFTLPEEAETMEGATVPLKMSDFTYVVEDMAGNITYTPVTKLLEGHSNKPEQDGSDQAPDKKPETKPEQDGSDQAPDKKPETKPGQDGSGQTPDKKPETKPEKDSSGQTPGKTPQKGQPSRTLEKRSSKRALATKASTRDQLPTTNDKDTNRLH | < 20 | 
